The data set can be described thus: label from the status in PepcDB records.

For “MSDLSQLIVAPILLPLITAAIMLLLGEKHRHIKARLNLLSTFSGLAIAACLLLWVRTQGQAASIGVYLPGNWPAPFGIVLVVDHLSALLLTLTGVIGFSALLFARARWDGAGASFHALFQIQLMGLYGAFLTADLFNLFVFFEVLLAASYGLLLHGSGRARVRAGLHYIAINLFASSLFLIGAAMLYGVTGTLNMADLALKIPLVPEADRGLLHAGAAILAMAFLVKAGIWPLNFWLVPAYASASAPVAALFAIMTKVGLYAVLRLWTLLFSGQAGASAHFGGEWLVYGGLVTLAVAAVSILAAQRLERMAALSILVSAGTLLGAVGFAQAALTGAALFYLVNSTLALCALFLLAELVERSRSANEAPLDEEEDAMPPPLESLHPPKGINLDDEQQVVIGQIIPWTMAFLGLSFIACALLIIGMPPLSGFVGKLNLISALFNPLGLGVPAEQPLSAAGWGLVALLILSGLASLIAFGRVGIQRFWKPEERPSPVLRRYECLPIVILLGLCLILSFKAEPLLRYTQDTAASLQAPDAYIKAVMAAQPIPGPTSRDVQVQP”, the protein production result is on record as “failed”.

Take “MSDLTFNKIAGGVLLTGLVIFGLREASSIVFSKPEVEKAGYEIAVQEESAGGAAVVESLPDWNAVLTPANVAAGQAVAAKCAACHKFDASNANGTGPGLWDVVGRKPAAHADFNYSTGMKEFAAKTPVWDYDHLYEFLKAPGKYVSGTNMTFVGLKKQEDRIAMIAYMHSLGSKLPVPPPRPVAAPAPAEGAAPAAEGAAPAAEGAAPAAAGAAPAAPAAAAPAAPKA”: the protein production entry is on record as “failed”.

For “MSDLVKIRDVSLSTPYVSVIGKITGIHKKEYESDGTTKSVYQGYIEDDTARIRISSFGKQLQDSDVVRIDNARVAQFNGYLSLSVGDSSRIESVNVNIPLEHHHHHH”, the protein production result is recorded as “not failed”.

On to “MSDLVSYHLDDGVATLTLNNGKVNAISPDVIIAFNAALDQAEKDRAIVIVTGQPGILSGGYDLKVMTSSAEAAINLVAQGSTLARRMLSHPFPIIVACPGHAVAKGAFLLLSADYRIGVAGPFSIGLNEVQIGMTMHHAGIELARDRLRKSAFNRSVINAEMFDPEGAMAAGFLDKVVSVEELQGAALAVAAQLKKINMNAHKKTKLKVRKGLLDTLDAAIEQDRQHML”, for which the protein production entry was “not failed”.

On to “MSDNKPFGGSFGSNGGQYATTVQYGGTAAAPAKVSLGDTPAAAPAGDVIKDTTTAAFAADVIQESRRQPVLVDFWAPWCGPCKQLTPQLEKAVRAAGGKVKLVKMNIDDHPSIAGQLGIQSIPAVIAFKDGQPVDGFMGAIPESQIAEFITKVGGKGNGAPAVAEALAAATEAREAGDMQTAADIFDAILAQAPETIEAIAGLGELLFEAGDTEGAEALLATAPEAKKDAPVLAALRAKMALAAQAAELGNPAEFERRLAENPKDHQARFDLAMIQNARGERTAAADNLLAIIKADRGWNEDGARTQLLQFFEAWGMTDEATLAARRKLSALLFS”, for which the protein production entry is listed as “failed”.

For the sequence “MSDPLTAQEQHKRRQAVRELMPRTPFIGGLGIVFERYEPDDVVIRLPFRTDLTNDGTYFHGGVIASVMDTAGAAAAWSNHDFDRGTRAATVAMSIQYTGAAKRCDLLCHARTARRRKELTFTEITATDPDGNIVAHAVQTYRIVLEHHHHHH”, the protein production result is “failed”.

Consider “MSDPSPIPARGRIASGGLVFLTVTTVAWGLSWPVTKYLISQWPPLPLRGLTGIAGSLALFGYAALRGDSLAVPRDQRLRLVISAFFNVTLWMAVMGLALLWLPAGETAVIAYTMPVWTALLAWPLLGERLTLRRVAALALAFGGIAALMGAAGFAASMTKLPGILLALTGALGFALGTIFLKRFPIALPGATSAAWQIGLGCIPVAVIGLAFEIPHVSVLTPLGWAGLVYLVVIQFCIAYVCWFAALQRLPASVAAIGTMATPVIGVVASAVALHEPLGVGQIAALVMTLTGVALATRS”, for which the protein production result is reported as “failed”.

Regarding “MSDSTLTGNAPVRRNITRKNVIIGLLLLLFVLIALWCHGRPGSELGLLEFTPLVALAILSLIGVDIVLAVISSIIIAMIMTSTGLPEMGTMLAKSTGSFIATVGLIIMLGAGVGEVATRTGAAVELVKFVVHRIGLSSQTRVKFGIVASSILICGSLGTMAGGNAIIVAVIIPVAAAVRLTPPTVAALMMTAGSVGLFTGPFTPSTVTILSLGGLSYPDYLLYVGLPMSAVTLLAGWVMAGRIQKMTEGKLRYDVDLAEKPQEDLSAAQQRRRKLSALAFAATIIVMAIVGVVIKAGFSFAIIVMLLVALMTGLVGGLRPTQILQALYHGCGRLVWMFILYWLYNPILELMDGLHAYQGLLEYTQPLLEGISPAWLCFSIFAFNIIGHVPGAAVAQMTFTHKIFGPMLMAAGVPPQGTTAVLLASSQVDWFGPFPSSDMFGQMGLAQSTHLKYMLYNGWAIVVANIILFALLFQILV”, the protein production entry was “failed”.

Consider “MSDTLYIKMDQAVEITKKQVTVGDVAKLQCKNKNITNRLKSMKLLEDTTKGKKRYIVSIMKIIEMADQTFQNVDIQNIGETECVVEFKTPKKDDGPM”, for which the protein production result is “not failed”.

Regarding “MSDVYNNEAFFKQYMKRRYRENSPNELIEKPAFFQLIGDVKGKKILDLGCGDAIFGKELLEKDCHSYTGIEGSELMYEKAKKQLENKNGIVHFLNLKDYTYPPATFDLVTSRLALHYIEHLPIIFQNVYETLKTNGTFTFSVQHPVITSSFESLQTSGKRTSWLVDDYFKTGKRVEPWIDQKVIKYHRTTEEYFTLLQQAGFTITNLKEATPNQTYFQSAEEYERRLRIPLFLLFSCRKLEHHHHHH”, the protein production entry was “failed”.

On to “MSDWNIDQAEELYGVNRWGAGYFSIGENGNIQIRPNHRLPDVTIDMKEVVDEIISEGIQFPAVIRFHDILRSQVEIINETFGKQIEEANYQGQYCGVFPIKVNQMREVVEEIMDAGEPYNYGLEAGSKPELMAVMAYNDNPEALTILNGYKDKDYLTLALLGRQLKRKMIIVIEKFSELEMLIPLAKQMGVKPMIGLRSKMMVKSSGKWAGSSGDRAKFGLSIAEILNVIERLREEDMLHCAKLLHFHIGSQLSDIRKIKEAVNEGARLYAKLVLEGMPLEYLDIGGGLGIDYDGTSTTNDSSRNYSTEEYVADVVWGVKQICDLEKVPHPNLVSESGRAMTAHHSCVVTNIVGEMKPAGTQYDISASSDEHILVKNMRELHSSGDQFHPQERYNDAAGYKQNAYEAFKLGILSLNEMAKLDTMYWQILADIHHSLDKDTYVMQELEELEDMLASQYLCNFSVFQSAADTWAIGQVLPVVPISRLNEQPEVRCSIVDITCDSDGKLSKYIEGTDISDHIPMHNLRKGEDYHVGLFLTGAYQDVMGDMHNLFGRLTEVHVYCHDDEPGDFYIEEVVPGTSAEKVLQTMQYNTEYMAKTVKKQIDRQVRKGSLAPREGVRWTNFYEHCLAGSTYLRVE”, for which the protein production entry is recorded as “failed”.

For “MSEANSGPGRVTREQRGHLFLIGLDRAGKRNAFDSAMLADLALAMGEYERSEESRCAVLFAHGEHFTAGLDLMELAPKLAASGFRYPDGGVDPWGVVQPRRSKPLVVAVQGTCWTAGIELMLNADIAVAARGTRFAHLEVLRGIPPLGGSTVRFPRAAGWTDAMRYILTGDEFDADEALRMRLLTEVVEPGEELARALEYAERIARAAPLAVRAALQSAFQGRDEGDDAALSRVNESLAALIGSEDVREGVLAMV”, the protein production entry is recorded as “not failed”.

On to “MSEDAWKVNLIGNDEVHDLYTIVGNAAKQSMARDTDPMVSTILAYEGDWRKVFKRNTMTTFYGSKGFGMAQQHMDDLMEPLSREVMQKKRAKHPFGQTRKEHHAASRLLAAHAAAAIKGEIPLAIKAMEFIQKLSAMMAHEGKPLEWTTPIGLPWSNRYHDPVTERVNLWMHDHGVRRPFRPVVADGYKKTINKNHSVNGSAPNFVHALEHHHHHH”, for which the protein production result is listed as “failed”.

As to “MSEDSELIEQVIEQPDSLIISPPSDSSSSSYNHIQPFVYLESTATTQTNHNVLLILNQKITIDLISLWKKCEIIVCADGGANSLYEYFNDNNHHHHHENLQRSDYIPDYIVGDFDSISPDVKTYYESHGSKIIRQSSQYYNDFTKSIHCIQLHYQLNHTKENWFESIDEVDGLAKLWNGLNNSSDVVVDIDITIYVLNAIGGRFDQTVQSINQLYIMNEDYPKVTVFFITTNDIIFLLKKGVNYISYKNRLMFHKDNGSSPTPTCGLLPLSNKTPIILNSYGLKYDMRNWKTEMLGQVSSSNRISGETGFIVECSDDIVMNIEIDV”, the protein production result is recorded as “not failed”.

Turning to “MSEEFDESEIIFSDNYFPIRRREDGNEKENNRPVDFRENSERVWNKSSRRSKTTPLPSAVTAFSSSLPVNIPMRRYSTEEEYSDDDGGRKMIPPHLIVGRRMEGGQMAFSVCTGNGRTLKGRDLSRVRNSVLKLTGFLEA”, the protein production entry is “failed”.

Consider “MSEEIREVKVLEKPWVEKYRPQRLDDIVGQEHIVKRLKHYVKTGSMPHLLFAGPPGVGKCLTGDTKVIANGQLFELGELVEKLSGGRFGPTPVKGLKVLGIDEDGKLREFEVQYVYKDRTDRLIKIKTQLGRELKVTPYHPLLVNRENGEIKWIKAEELKPGDKLAIPSFLPLITGENPLAEWLGYFMGSGYAYPSNSVITFTNEDPLIRQRFMELTEKLFPDAKIRERIHADGTPEVYVVSRKAWSLVNSISLTLIPREGWKGIRSFLRAYSDCNGRIESDAIVLSTDNNDMAQQIAYALASFGIIAKMDGEDVIISGSDNIERFLNEIGFSTQSKLKEAQKLIRKTNVRSDGLKINYELISYVKDRLRLNVNDKRNLSYRNAKELSWELMKEIYYRLEELERLKKVLSEPILIDWNEVAKKSDEVIEKAKIRAEKLLEYIKGERKPSFKEYIEIAKVLGINVERTIEAMKIFAKRYSSYAEIGRKLGTWNFNVKTILESDTVDNVEILEKIRKIELELIEEILSDGKLKEGIAYLIFLFQNELYWDEITEVKELRGDFIIYDLHVPGYHNFIAGNMPTVVHNTTAALALARELFGENWRHNFLELNASDERGINVIREKVKEFARTKPIGGASFKIIFLDEADALTQDAQQALRRTMEMFSSNVRFILSCNYSSKIIEPIQSRCAIFRFRPLRDEDIAKRLRYIAENEGLELTEEGLQAILYIAEGDMRRAINILQAAAALDKKITDENVFMVASRARPEDIREMMLLALKGNFLKAREKLREILLKQGLSGEDVLVQMHKEVFNLPIEEPKKVLLADKIGEYNFRLVEGANEIIQLEALLAQFTLIGKK”, for which the protein production result was “failed”.

In the case of “MSEEKNLVINANDSLGEIVIAPEVIEVIIGIAASKVEGVYGMRGTFANNVNELLGRAAHGKGVYLRTEEEGLKVDIYCYLNYGVSVPKVALEMQDRVKQQVLFMTDIDLVEVNIHVVAVVPEKIPQPDLNELFPEDEDGEENELEHHHHHH”, the protein production result is recorded as “not failed”.

For the sequence “MSEHHHDHSHDHGHAGHQYHAVGSIQIAFFMNFGFTILEAIGGVMTNSTAILANAVHDFGDSIAVGQAWYFEKLSGRTGDKRYSYGYQRFSIFGALVSALMMLASSFLVLVEAVPRLLHPEHPNAKGMVAFALVGVAVNALAMLRLKGQAGMNARVIALHLLEDVLGWLSVLLVSVVLLFTSLPILDPLLAIVITLYILTGVVKNLRAMVPVFLQAVPSELSLDKVVADIQQTEHVTGVHHAHLWSLDGQRTVFTAHLEIGCDVNPAEYASIKEEIRKLVARHGIYHSTVELEYPGEVCRNESHKDG”, the protein production entry is recorded as “failed”.

Take “MSEHPKKVVLLDLDGTLTKSDPGIIGCVVKAFEEMGYPVPDDAELHRFIGPAISESMQRNGIPDDKLDEGVRIYRKYYADEAVFDDPNNPGQKVPGRLNNTIYQGIPEQLAKLRADGYYLAIASCKPQYQCIPICEHFHLDTMVDGIYGASEDNSRLDKDQVIRWAFQHIDFDENAGDKALMVGDRWTDADGAKACGLDCLGCGWGYAEPGELKAHGAYRILDSVDELAQAVEEYFA”: the protein production entry was “not failed”.
